Results reported in the supplement of paper PMC9112550, “Optimization of the antimicrobial peptide Bac7 by deep mutational scanning” (BMC Biology, 2022).

System: Escherichia coli TOP10
Assay: shrunken log2 fold change of peptide-encoding DNA abundance (4.5 h post-induction vs induction); higher = less antimicrobial activity (less host growth inhibition)
Details: time post-induction: 4.5 h; library: site-saturation at positions 5, 18, 19, 20
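Note: peptides expressed intracellularly from a pBAD plasmid library in pooled LB shake-flask culture, induced with 0.3% L-arabinose, DNA abundance read by NGS, three biological replicates, DESeq2 with apeglm shrinkage.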

RRIRQRPPRLPRPRPRPMSVPRP was tested, and the “shrunken log2 fold change” value was 0.0173.

For RRIRPRPPRLPRPRPRPRMDPRP, the “shrunken log2 fold change” value was 0.176.

RRIRGRPPRLPRPRPRPRINPRP was tested, and the “shrunken log2 fold change” value was -0.122.

With RRIRNRPPRLPRPRPRPQFCPRP the “shrunken log2 fold change” value was -0.0424.

RRIRARPPRLPRPRPRPFYYPRP was tested, and the “shrunken log2 fold change” value was -0.485.

For RRIRPRPPRLPRPRPRPTYGPRP, the “shrunken log2 fold change” value was -0.171.

For RRIRYRPPRLPRPRPRPQEYPRP, the “shrunken log2 fold change” value was -0.00804.

For RRIRDRPPRLPRPRPRPEDIPRP, the “shrunken log2 fold change” value was 0.0238.

RRIRERPPRLPRPRPRPPLCPRP was tested, and the “shrunken log2 fold change” value was 0.124.

In the case of RRIRDRPPRLPRPRPRPNWRPRP, the “shrunken log2 fold change” value was 0.46.

RRIRARPPRLPRPRPRPMDSPRP was tested, and the “shrunken log2 fold change” value was -0.104.

For RRIRGRPPRLPRPRPRPLKVPRP, the “shrunken log2 fold change” value was 0.271.

For RRIRWRPPRLPRPRPRPRFHPRP, the “shrunken log2 fold change” value was -0.293.

RRIRARPPRLPRPRPRPKEMPRP was tested, and the “shrunken log2 fold change” value was 0.324.

With RRIRVRPPRLPRPRPRPNGTPRP the “shrunken log2 fold change” value was -0.356.

With RRIRPRPPRLPRPRPRPWKPPRP the “shrunken log2 fold change” value was -0.149.

With RRIRIRPPRLPRPRPRPRFVPRP the “shrunken log2 fold change” value was -0.104.

RRIRLRPPRLPRPRPRPTFNPRP was tested, and the “shrunken log2 fold change” value was -0.289.

With RRIRERPPRLPRPRPRPLTGPRP the “shrunken log2 fold change” value was -0.0199.

For RRIRERPPRLPRPRPRPTACPRP, the “shrunken log2 fold change” value was -0.134.

For RRIRTRPPRLPRPRPRPQLCPRP, the “shrunken log2 fold change” value was -0.0792.

In the case of RRIRSRPPRLPRPRPRPYVFPRP, the “shrunken log2 fold change” value was -0.545.

RRIRWRPPRLPRPRPRPIWGPRP was tested, and the “shrunken log2 fold change” value was -0.01.

With RRIRGRPPRLPRPRPRPWTKPRP the “shrunken log2 fold change” value was 0.0647.

For RRIRERPPRLPRPRPRPQAPPRP, the “shrunken log2 fold change” value was -0.0683.

RRIRLRPPRLPRPRPRPVHPPRP was tested, and the “shrunken log2 fold change” value was 0.039.

With RRIRLRPPRLPRPRPRPYAVPRP the “shrunken log2 fold change” value was 0.00157.

With RRIRCRPPRLPRPRPRPAPLPRP the “shrunken log2 fold change” value was 0.645.

In the case of RRIRWRPPRLPRPRPRPMRCPRP, the “shrunken log2 fold change” value was 0.353.

With RRIRLRPPRLPRPRPRPCQWPRP the “shrunken log2 fold change” value was -0.0969.

In the case of RRIRCRPPRLPRPRPRPDMCPRP, the “shrunken log2 fold change” value was -0.13.

For RRIRIRPPRLPRPRPRPNPVPRP, the “shrunken log2 fold change” value was 0.087.

For RRIRPRPPRLPRPRPRPIMMPRP, the “shrunken log2 fold change” value was -0.199.

RRIRLRPPRLPRPRPRPHLKPRP was tested, and the “shrunken log2 fold change” value was -0.564.

RRIRWRPPRLPRPRPRPFMFPRP was tested, and the “shrunken log2 fold change” value was -0.0915.

For RRIRKRPPRLPRPRPRPFADPRP, the “shrunken log2 fold change” value was 0.00902.

For RRIRHRPPRLPRPRPRPAPRPRP, the “shrunken log2 fold change” value was 0.749.

For RRIRLRPPRLPRPRPRPKQRPRP, the “shrunken log2 fold change” value was 0.225.

In the case of RRIRMRPPRLPRPRPRPTWIPRP, the “shrunken log2 fold change” value was 0.0438.

For RRIRCRPPRLPRPRPRPIWKPRP, the “shrunken log2 fold change” value was 0.0906.

RRIRVRPPRLPRPRPRPGKWPRP was tested, and the “shrunken log2 fold change” value was -0.141.

With RRIRTRPPRLPRPRPRPMLCPRP the “shrunken log2 fold change” value was -0.00838.

RRIRTRPPRLPRPRPRPNKIPRP was tested, and the “shrunken log2 fold change” value was -0.799.

In the case of RRIRMRPPRLPRPRPRPMEWPRP, the “shrunken log2 fold change” value was 0.379.

With RRIRYRPPRLPRPRPRPWKAPRP the “shrunken log2 fold change” value was -0.0135.

In the case of RRIRARPPRLPRPRPRPRNHPRP, the “shrunken log2 fold change” value was 0.0958.

With RRIRFRPPRLPRPRPRPKSQPRP the “shrunken log2 fold change” value was -0.0404.

RRIRERPPRLPRPRPRPSNSPRP was tested, and the “shrunken log2 fold change” value was -0.0251.

With RRIRNRPPRLPRPRPRPNKTPRP the “shrunken log2 fold change” value was -0.0415.

For RRIRKRPPRLPRPRPRPCGLPRP, the “shrunken log2 fold change” value was 0.933.

RRIRKRPPRLPRPRPRPTPCPRP was tested, and the “shrunken log2 fold change” value was 0.692.

RRIRSRPPRLPRPRPRPEKCPRP was tested, and the “shrunken log2 fold change” value was -0.0875.

With RRIRTRPPRLPRPRPRPLEAPRP the “shrunken log2 fold change” value was 0.115.

With RRIRNRPPRLPRPRPRPTGQPRP the “shrunken log2 fold change” value was -0.115.

For RRIRFRPPRLPRPRPRPPLRPRP, the “shrunken log2 fold change” value was 0.373.

With RRIRNRPPRLPRPRPRPGHPPRP the “shrunken log2 fold change” value was -0.0813.

RRIRCRPPRLPRPRPRPHAVPRP was tested, and the “shrunken log2 fold change” value was -0.559.

With RRIRVRPPRLPRPRPRPTSQPRP the “shrunken log2 fold change” value was 0.00273.

For RRIRDRPPRLPRPRPRPPGWPRP, the “shrunken log2 fold change” value was 1.66.

With RRIRRRPPRLPRPRPRPHYPPRP the “shrunken log2 fold change” value was 0.158.

RRIRIRPPRLPRPRPRPGDDPRP was tested, and the “shrunken log2 fold change” value was 0.136.

With RRIRNRPPRLPRPRPRPSLEPRP the “shrunken log2 fold change” value was -0.208.

In the case of RRIRLRPPRLPRPRPRPAFYPRP, the “shrunken log2 fold change” value was 0.903.

For RRIRVRPPRLPRPRPRPDIRPRP, the “shrunken log2 fold change” value was -0.179.

With RRIRIRPPRLPRPRPRPHNFPRP the “shrunken log2 fold change” value was -0.0684.

RRIRQRPPRLPRPRPRPYGLPRP was tested, and the “shrunken log2 fold change” value was -0.048.

With RRIRARPPRLPRPRPRPEYPPRP the “shrunken log2 fold change” value was 0.0126.

For RRIRFRPPRLPRPRPRPWAMPRP, the “shrunken log2 fold change” value was -0.0609.

RRIRCRPPRLPRPRPRPAKKPRP was tested, and the “shrunken log2 fold change” value was 0.00097.

With RRIRQRPPRLPRPRPRPKRFPRP the “shrunken log2 fold change” value was -0.0339.

With RRIRNRPPRLPRPRPRPLCKPRP the “shrunken log2 fold change” value was -0.146.

RRIRQRPPRLPRPRPRPDWSPRP was tested, and the “shrunken log2 fold change” value was -0.0861.

With RRIRCRPPRLPRPRPRPHLGPRP the “shrunken log2 fold change” value was -0.0785.

In the case of RRIRDRPPRLPRPRPRPDCQPRP, the “shrunken log2 fold change” value was -0.00973.

In the case of RRIRHRPPRLPRPRPRPGCPPRP, the “shrunken log2 fold change” value was -0.0112.

In the case of RRIRCRPPRLPRPRPRPRHKPRP, the “shrunken log2 fold change” value was -0.265.

With RRIRCRPPRLPRPRPRPFTAPRP the “shrunken log2 fold change” value was -0.553.

In the case of RRIRNRPPRLPRPRPRPASCPRP, the “shrunken log2 fold change” value was -0.233.

For RRIRLRPPRLPRPRPRPQAVPRP, the “shrunken log2 fold change” value was 0.0328.

With RRIRIRPPRLPRPRPRPTRHPRP the “shrunken log2 fold change” value was 0.0172.

RRIRRRPPRLPRPRPRPPVLPRP was tested, and the “shrunken log2 fold change” value was 0.18.

RRIRRRPPRLPRPRPRPQIMPRP was tested, and the “shrunken log2 fold change” value was -0.137.

In the case of RRIRERPPRLPRPRPRPGDGPRP, the “shrunken log2 fold change” value was 0.389.

With RRIRKRPPRLPRPRPRPTEHPRP the “shrunken log2 fold change” value was 0.279.

For RRIRYRPPRLPRPRPRPNSHPRP, the “shrunken log2 fold change” value was -0.839.

RRIRSRPPRLPRPRPRPATPPRP was tested, and the “shrunken log2 fold change” value was 0.373.

RRIRARPPRLPRPRPRPDLFPRP was tested, and the “shrunken log2 fold change” value was 1.09.

RRIRMRPPRLPRPRPRPRFGPRP was tested, and the “shrunken log2 fold change” value was 0.853.

With RRIRMRPPRLPRPRPRPNSNPRP the “shrunken log2 fold change” value was -0.177.

For RRIRGRPPRLPRPRPRPMCAPRP, the “shrunken log2 fold change” value was 1.88.

With RRIRGRPPRLPRPRPRPHYWPRP the “shrunken log2 fold change” value was 0.12.
